Source: patent US10919943B2, “Mutant proteins enabling agrochemical control of plant gene expression” (The Regents of the University of California, priority 2016, dated 2021)

System: HAB1
Assay: Yeast two hybrid of pBD-PYR1 site saturation mutants with pACT-HAB1 on 10 μM ABA, β-galactosidase staining
Type: cell-based, Arabidopsis
Set-up: key: x: Mutations in PYR1 that disrupt ABA-induced binding to PYR1 to HAB1
Conditions: S. cerevisiae Y190, 10 μM ABA; dead = lack of visible staining in comparison to wild type control
Excerpt: To systematically identify mutations in PYR1 that disrupt its binding to HAB1, we utilized a collection of saturating mutations that contain all possible single amino acid substitutions in 24 conserved interface residues involved in binding HAB1, which was previously constructed for the purpose of engineering constitutively active ABA receptor variants (Mosquna et al., 2011). The interface residues previously mutagenized in this collection are the following: H60, F61, I62, K63, I84, S85, G86, L87, P88, A89, H115, R116, L117, P148, G150, N151, D154, D155, T156, M158, F159, T162, L166, K170. This set was made by mutagenizing a pBD-PYR1 template that encodes a GAL4-DNA binding domain fusion to PYR1, which can be used to assess receptor-HAB1 binding in S. cerevisiae strains co-transformed with pACT-HAB1, which expresses a GAL4 activation domain fusion to HAB1. Mutant pBD-PYR1 clones from the collection are maintained in S. cerevisiae strain Y190 co-transformed with pACT-HAB1. The test strains were spotted onto agar plates containing synthetic dextrose dropout media lacking leucine and tryptophan [SD (-Leu, -Trp)] medium supplemented with 10 μM ABA. After incubating the test plates at 30° C. for two days, colonies were chloroform lysed and stained to reveal […] expression levels and “dead” mutants were defined by lack of visible staining in comparison to a wild type control. This effort defined 237 mutations that disrupt ABA-induced binding of PYR1 to HAB1 (Table 1). Premade yeast drop out supplements (Clontech) were utilized in this and other examples for media preparation, amino acids and other standard chemicals were purchased from Sigma-Aldrich (USA). The naturally occurring (+)-ABA isomer was used in all experiments and purchased from Biosynth Ag (Switzerland).

Mutations in PYR1 that disrupt ABA-induced binding to PYR1 to HAB1	Molecule
x	P88S: PYR1 mutant (protein, UniProt O49686 1-191, looked up, variant P88S) Abscisic acid receptor PYR1: MPSELTPEERSELKNSIAEFHTYQLDPGSCSSLHAQRIHAPPELVWSIVRRFDKPQTYKHFIKSCSVEQNFEMRVGCTRDVIVISGLSANTSTERLDILDDERRVTGFSIIGGEHRLTNYKSVTTVHRFEKENRIWTVVLESYVVDMPEGNSEDDTRMFADTVVKLNLQKLATVAEAMARNSGDGSGSQVT
x	A89P: PYR1 mutant (protein, UniProt O49686 1-191, looked up, variant A89P) Abscisic acid receptor PYR1: MPSELTPEERSELKNSIAEFHTYQLDPGSCSSLHAQRIHAPPELVWSIVRRFDKPQTYKHFIKSCSVEQNFEMRVGCTRDVIVISGLPPNTSTERLDILDDERRVTGFSIIGGEHRLTNYKSVTTVHRFEKENRIWTVVLESYVVDMPEGNSEDDTRMFADTVVKLNLQKLATVAEAMARNSGDGSGSQVT
x	P88W: PYR1 mutant (protein, UniProt O49686 1-191, looked up, variant P88W) Abscisic acid receptor PYR1: MPSELTPEERSELKNSIAEFHTYQLDPGSCSSLHAQRIHAPPELVWSIVRRFDKPQTYKHFIKSCSVEQNFEMRVGCTRDVIVISGLWANTSTERLDILDDERRVTGFSIIGGEHRLTNYKSVTTVHRFEKENRIWTVVLESYVVDMPEGNSEDDTRMFADTVVKLNLQKLATVAEAMARNSGDGSGSQVT
x	P88V: PYR1 mutant (protein, UniProt O49686 1-191, looked up, variant P88V) Abscisic acid receptor PYR1: MPSELTPEERSELKNSIAEFHTYQLDPGSCSSLHAQRIHAPPELVWSIVRRFDKPQTYKHFIKSCSVEQNFEMRVGCTRDVIVISGLVANTSTERLDILDDERRVTGFSIIGGEHRLTNYKSVTTVHRFEKENRIWTVVLESYVVDMPEGNSEDDTRMFADTVVKLNLQKLATVAEAMARNSGDGSGSQVT
x	A89R: PYR1 mutant (protein, UniProt O49686 1-191, looked up, variant A89R) Abscisic acid receptor PYR1: MPSELTPEERSELKNSIAEFHTYQLDPGSCSSLHAQRIHAPPELVWSIVRRFDKPQTYKHFIKSCSVEQNFEMRVGCTRDVIVISGLPRNTSTERLDILDDERRVTGFSIIGGEHRLTNYKSVTTVHRFEKENRIWTVVLESYVVDMPEGNSEDDTRMFADTVVKLNLQKLATVAEAMARNSGDGSGSQVT
x	P88I: PYR1 mutant (protein, UniProt O49686 1-191, looked up, variant P88I) Abscisic acid receptor PYR1: MPSELTPEERSELKNSIAEFHTYQLDPGSCSSLHAQRIHAPPELVWSIVRRFDKPQTYKHFIKSCSVEQNFEMRVGCTRDVIVISGLIANTSTERLDILDDERRVTGFSIIGGEHRLTNYKSVTTVHRFEKENRIWTVVLESYVVDMPEGNSEDDTRMFADTVVKLNLQKLATVAEAMARNSGDGSGSQVT
x	P88C: PYR1 mutant (protein, UniProt O49686 1-191, looked up, variant P88C) Abscisic acid receptor PYR1: MPSELTPEERSELKNSIAEFHTYQLDPGSCSSLHAQRIHAPPELVWSIVRRFDKPQTYKHFIKSCSVEQNFEMRVGCTRDVIVISGLCANTSTERLDILDDERRVTGFSIIGGEHRLTNYKSVTTVHRFEKENRIWTVVLESYVVDMPEGNSEDDTRMFADTVVKLNLQKLATVAEAMARNSGDGSGSQVT
x	A89N: PYR1 mutant (protein, UniProt O49686 1-191, looked up, variant A89N) Abscisic acid receptor PYR1: MPSELTPEERSELKNSIAEFHTYQLDPGSCSSLHAQRIHAPPELVWSIVRRFDKPQTYKHFIKSCSVEQNFEMRVGCTRDVIVISGLPNNTSTERLDILDDERRVTGFSIIGGEHRLTNYKSVTTVHRFEKENRIWTVVLESYVVDMPEGNSEDDTRMFADTVVKLNLQKLATVAEAMARNSGDGSGSQVT
x	P88E: PYR1 mutant (protein, UniProt O49686 1-191, looked up, variant P88E) Abscisic acid receptor PYR1: MPSELTPEERSELKNSIAEFHTYQLDPGSCSSLHAQRIHAPPELVWSIVRRFDKPQTYKHFIKSCSVEQNFEMRVGCTRDVIVISGLEANTSTERLDILDDERRVTGFSIIGGEHRLTNYKSVTTVHRFEKENRIWTVVLESYVVDMPEGNSEDDTRMFADTVVKLNLQKLATVAEAMARNSGDGSGSQVT
x	P88K: PYR1 mutant (protein, UniProt O49686 1-191, looked up, variant P88K) Abscisic acid receptor PYR1: MPSELTPEERSELKNSIAEFHTYQLDPGSCSSLHAQRIHAPPELVWSIVRRFDKPQTYKHFIKSCSVEQNFEMRVGCTRDVIVISGLKANTSTERLDILDDERRVTGFSIIGGEHRLTNYKSVTTVHRFEKENRIWTVVLESYVVDMPEGNSEDDTRMFADTVVKLNLQKLATVAEAMARNSGDGSGSQVT
x	P88G: PYR1 mutant (protein, UniProt O49686 1-191, looked up, variant P88G) Abscisic acid receptor PYR1: MPSELTPEERSELKNSIAEFHTYQLDPGSCSSLHAQRIHAPPELVWSIVRRFDKPQTYKHFIKSCSVEQNFEMRVGCTRDVIVISGLGANTSTERLDILDDERRVTGFSIIGGEHRLTNYKSVTTVHRFEKENRIWTVVLESYVVDMPEGNSEDDTRMFADTVVKLNLQKLATVAEAMARNSGDGSGSQVT
x	P88D: PYR1 mutant (protein, UniProt O49686 1-191, looked up, variant P88D) Abscisic acid receptor PYR1: MPSELTPEERSELKNSIAEFHTYQLDPGSCSSLHAQRIHAPPELVWSIVRRFDKPQTYKHFIKSCSVEQNFEMRVGCTRDVIVISGLDANTSTERLDILDDERRVTGFSIIGGEHRLTNYKSVTTVHRFEKENRIWTVVLESYVVDMPEGNSEDDTRMFADTVVKLNLQKLATVAEAMARNSGDGSGSQVT
x	P88Y: PYR1 mutant (protein, UniProt O49686 1-191, looked up, variant P88Y) Abscisic acid receptor PYR1: MPSELTPEERSELKNSIAEFHTYQLDPGSCSSLHAQRIHAPPELVWSIVRRFDKPQTYKHFIKSCSVEQNFEMRVGCTRDVIVISGLYANTSTERLDILDDERRVTGFSIIGGEHRLTNYKSVTTVHRFEKENRIWTVVLESYVVDMPEGNSEDDTRMFADTVVKLNLQKLATVAEAMARNSGDGSGSQVT
x	P88F: PYR1 mutant (protein, UniProt O49686 1-191, looked up, variant P88F) Abscisic acid receptor PYR1: MPSELTPEERSELKNSIAEFHTYQLDPGSCSSLHAQRIHAPPELVWSIVRRFDKPQTYKHFIKSCSVEQNFEMRVGCTRDVIVISGLFANTSTERLDILDDERRVTGFSIIGGEHRLTNYKSVTTVHRFEKENRIWTVVLESYVVDMPEGNSEDDTRMFADTVVKLNLQKLATVAEAMARNSGDGSGSQVT
x	A89L: PYR1 mutant (protein, UniProt O49686 1-191, looked up, variant A89L) Abscisic acid receptor PYR1: MPSELTPEERSELKNSIAEFHTYQLDPGSCSSLHAQRIHAPPELVWSIVRRFDKPQTYKHFIKSCSVEQNFEMRVGCTRDVIVISGLPLNTSTERLDILDDERRVTGFSIIGGEHRLTNYKSVTTVHRFEKENRIWTVVLESYVVDMPEGNSEDDTRMFADTVVKLNLQKLATVAEAMARNSGDGSGSQVT
x	P88H: PYR1 mutant (protein, UniProt O49686 1-191, looked up, variant P88H) Abscisic acid receptor PYR1: MPSELTPEERSELKNSIAEFHTYQLDPGSCSSLHAQRIHAPPELVWSIVRRFDKPQTYKHFIKSCSVEQNFEMRVGCTRDVIVISGLHANTSTERLDILDDERRVTGFSIIGGEHRLTNYKSVTTVHRFEKENRIWTVVLESYVVDMPEGNSEDDTRMFADTVVKLNLQKLATVAEAMARNSGDGSGSQVT
x	P88T: PYR1 mutant (protein, UniProt O49686 1-191, looked up, variant P88T) Abscisic acid receptor PYR1: MPSELTPEERSELKNSIAEFHTYQLDPGSCSSLHAQRIHAPPELVWSIVRRFDKPQTYKHFIKSCSVEQNFEMRVGCTRDVIVISGLTANTSTERLDILDDERRVTGFSIIGGEHRLTNYKSVTTVHRFEKENRIWTVVLESYVVDMPEGNSEDDTRMFADTVVKLNLQKLATVAEAMARNSGDGSGSQVT
x	A89M: PYR1 mutant (protein, UniProt O49686 1-191, looked up, variant A89M) Abscisic acid receptor PYR1: MPSELTPEERSELKNSIAEFHTYQLDPGSCSSLHAQRIHAPPELVWSIVRRFDKPQTYKHFIKSCSVEQNFEMRVGCTRDVIVISGLPMNTSTERLDILDDERRVTGFSIIGGEHRLTNYKSVTTVHRFEKENRIWTVVLESYVVDMPEGNSEDDTRMFADTVVKLNLQKLATVAEAMARNSGDGSGSQVT
x	A89Q: PYR1 mutant (protein, UniProt O49686 1-191, looked up, variant A89Q) Abscisic acid receptor PYR1: MPSELTPEERSELKNSIAEFHTYQLDPGSCSSLHAQRIHAPPELVWSIVRRFDKPQTYKHFIKSCSVEQNFEMRVGCTRDVIVISGLPQNTSTERLDILDDERRVTGFSIIGGEHRLTNYKSVTTVHRFEKENRIWTVVLESYVVDMPEGNSEDDTRMFADTVVKLNLQKLATVAEAMARNSGDGSGSQVT
